Measured values published in patent US20110086770A1 (ANAPHORE, published 2011).

T1: recombinant human IL-23R/Fc chimera (R&D Systems) (human, UniProt Q5VWK5 24-353)
T1 construct: bought; also called human IL-23R/Fc fusion protein; rhIL23RFc
T1 sequence (looked up): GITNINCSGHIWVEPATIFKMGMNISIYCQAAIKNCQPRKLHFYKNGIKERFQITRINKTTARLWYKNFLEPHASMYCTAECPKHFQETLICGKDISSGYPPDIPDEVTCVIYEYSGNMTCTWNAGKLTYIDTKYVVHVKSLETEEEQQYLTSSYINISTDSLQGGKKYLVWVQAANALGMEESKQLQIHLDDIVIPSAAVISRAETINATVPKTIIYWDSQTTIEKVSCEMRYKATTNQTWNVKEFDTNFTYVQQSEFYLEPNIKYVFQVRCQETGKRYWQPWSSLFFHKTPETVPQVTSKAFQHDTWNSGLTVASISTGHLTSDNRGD


Legend:
[1] = molecular target: recombinant human DR 5 receptor Fc fusion protein (R&D Systems) (human); assay: SPR (Biacore), captured DR5/Fc
[2] = molecular target: T1, recombinant human IL-23R/Fc chimera …; assay: competition ELISA against IL-23
Method: Assays were performed generally as follows. Individual wells in Immulon HB2 plates were incubated overnight at 4° C. with 100 μL PBS containing 100 ng of an anti-human IgG Fc (R&D MAB 110 clone 97924). Plates were washed five times with PBS/0.05% Tween 20, and wells were incubated for 1.5 h at RT with 100 μL each of PBS containing 50 ng of recombinant human IL-23R/Fc. […] Competitor was included at a final concentration of 1 μg/mL. After incubation, plates were washed as described and wells were incubated for 40 min at RT with 100 μL each of PBS containing a 1:5000 dilution of streptavidin-HRP conjugate (Pierce catalog no. 21130). After washing, wells were incubated with 100 μL each of TMB (BioFX Lab catalog no. TMBH-1000-0) for up to 30 min at RT. Reactions were stopped with an equal volume of 0.2 M sulfuric acid.

[3] = molecular target: T1, recombinant human IL-23R/Fc chimera …; assay: SPR (Biacore), captured IL-23R/Fc, ATRIMER
Method: A Biacore 3000 biosensor (GE Healthcare) was used to evaluate the interaction of human IL-23R and receptor binders. Immobilization of an anti-human IgG Fc antibody (GE Heathcare) to the CM5 chip (Biacore) was performed using standard amine coupling chemistry, and this modified surface was used to capture a recombinant human IL-23R/Fc fusion protein (R&D Systems). A low-density receptor surface, less than 200 RU, was used for all of the analyses. ATRIMER™ polypeptide complex dilutions (1-500 nM) were injected over the IL-23R surface at 30 μl/min and kinetic constants were derived from the sensorgram data using the Biaevaluation software (version 3.1, GE Healthcare). Data collection was 3 minutes for the association and 5 minutes for dissociation. The anti-human IgG surface was regenerated with a 30 s pulse of 3M magnesium chloride. All sensorgrams were double-referenced against an activated and blocked flow-cell as well as buffer injections.

[4] = molecular target: recombinant human DR 4 receptor Fc fusion protein (R&D Systems) (human); assay: SPR (Biacore), captured DR4/Fc
Chain of recombinant human DR 4 receptor Fc fusion protein (R&D Systems) (human) (chain, as listed by the source): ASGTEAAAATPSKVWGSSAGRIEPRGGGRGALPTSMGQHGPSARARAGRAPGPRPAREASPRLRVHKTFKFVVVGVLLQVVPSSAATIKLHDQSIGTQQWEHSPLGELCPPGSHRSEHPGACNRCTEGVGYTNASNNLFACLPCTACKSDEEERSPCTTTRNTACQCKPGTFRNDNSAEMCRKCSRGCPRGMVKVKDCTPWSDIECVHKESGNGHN

Chain of recombinant human DR 5 receptor Fc fusion protein (R&D Systems) (human) (chain, as listed by the source): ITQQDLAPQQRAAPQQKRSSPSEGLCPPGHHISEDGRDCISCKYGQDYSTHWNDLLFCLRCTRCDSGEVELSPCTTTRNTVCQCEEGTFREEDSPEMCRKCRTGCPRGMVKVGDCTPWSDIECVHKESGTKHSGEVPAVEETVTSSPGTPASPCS

Ratio IC50 to 056-53.H4E IC50 [2] [ratio] | Ka [3] [M⁻¹] | Kd [3] [nM] | koff [3] [s⁻¹] | kon [3] [M⁻¹ s⁻¹] | Binder | further results
1.2 | 1.32e+09 | 0.759 | 0.000312 | 412000 | 105-20-2A3 ATRIMER (designed binder, not shown: C-terminal tag: Myc/His6 (pANA4) or HA-StrepII (pANA10); A Ser left at the ompA junction may also sit at the N-terminus) EPPTQKPKKIVNAKKDVVNTKMFEELKSRLDTLAQEVALLKEQQALQTVCLKGTKVHMKCFLAFTQTKTFHEASEDCISRGGTLSTPQTGSENDALYEYLRQSVGNEAEIWLGLNGSPITNTWVDMTGARIAYKNWETEITAQPDGGFGYFGENCAVLSGAANGKWFDKRCRDQLPYICQFGIV | 
1.1 | 2.11e+09 | 0.473 | 0.000348 | 735000 | 105-08-1A3 ATRIMER (designed binder, not shown: C-terminal tag: Myc/His6 (pANA4) or HA-StrepII (pANA10); A Ser left at the ompA junction may also sit at the N-terminus) EPPTQKPKKIVNAKKDVVNTKMFEELKSRLDTLAQEVALLKEQQALQTVCLKGTKVHMKCFLAFTQTKTFHEASEDCISRGGTLSTPQTGSENDALYEYLRQSVGNEAEIWLGLNGSPRTDTWVDMTGARIAYKNWETEITAQPDGGWGVFGENCAVLSGAANGKWFDKRCRDQLPYICQFGIV | 
2.8 | 5.41e+08 | 1.85 | 0.000471 | 254000 | 105-20-2F12 ATRIMER (designed binder, not shown: C-terminal tag: His/Myc (pANA4) or HA-StrepII (pANA10)) EPPTQKPKKIVNAKKDVVNTKMFEELKSRLDTLAQEVALLKEQQALQTVCLKGTKVHMKCFLAFTQTKTFHEASEDCISRGGTLSTPQTGSENDALYEYLRQSVGNEAEIWLGLNGSKLTDTWVDMTGARIAYKNWETEITAQPDGGFGYFGENCAVLSGAANGKWFDKRCRDQLPYICQFGIV | 
1.4 | 1.11e+09 | 0.897 | 0.000429 | 479000 | 101-54-4B10 ATRIMER (designed binder, ATRIMER is a homotrimer; one protomer is given., not shown: C-terminal purification tag: Myc/His6 (pANA4) or HA-StrepII (pANA10)) EPPTQKPKKIVNAKKDVVNTKMFEELKSRLDTLAQEVALLKEQQALQTVCLKGTKVHMKCFLAFTQTKTFHEASEDCISRGGTLSTPQTGSENDALYEYLRQSVGNEAEIWLGLNGSALTNTWVDMTGARIAYKNWERPPLYQPGGGFGYFGENCAVLSGAANGKWFDKRCRDQLPYICQFGIV | 
2 | 9.62e+08 | 1.04 | 0.000283 | 271000 | 101-113-6C102 ATRIMER (designed binder, ATRIMER is a homotrimer; one protomer is given., not shown: C-terminal purification tag: Myc/His6 (pANA4) or HA-StrepII (pANA10)) EPPTQKPKKIVNAKKDVVNTKMFEELKSRLDTLAQEVALLKEQQALQTVCLKGTKVHMKCFLAFTQTKTFHEASEDCISRGGTLSTPQTGSENDALYEYLRQSVGNEAEIWLGLNGSNVTQTWVDMTGARIAYKNWEPPPPHHPQGGFGVFGENCAVLSGAANGKWFDKRCRDQLPYICQFGIV | 
11.3 | 1.55e+08 | 6.46 | 0.000327 | 50500 | 101-80-5H3 ATRIMER (designed binder, ATRIMER is a homotrimer; one protomer is given., one residue deleted from Loop 4 (-GVFG); the GlyGly to AlaAla change; not shown: C-terminal purification tag: Myc/His6 (pANA4) or HA-StrepII (pANA10)) EPPTQKPKKIVNAKKDVVNTKMFEELKSRLDTLAQEVALLKEQQALQTVCLKGTKVHMKCFLAFTQTKTFHEASEDCISRGGTLSTPQTGSENDALYEYLRQSVGNEAEIWLGLNGSALTNTWVDMTGARIAYKNWEPPAPYHPMAAGVFGENCAVLSGAANGKWFDKRCRDQLPYICQFGIV | 

More lines, now with the values behind:

Binder | Ratio IC50 to 056-53.H4E IC50 [2] [ratio] | Ka [3] [M⁻¹] | Kd [3] [nM] | koff [3] [s⁻¹] | kon [3] [M⁻¹ s⁻¹] | further results
1a7b (=A8G) DR 5 ATRIMER (designed binder, Homotrimer (ATRIMER) of this chain; one protomer is given., also called 029-15.A8G; not shown: C-terminal tag (His/Myc of pANA4, HA-StrepII of pANA10, or that of pANA19)) EPPTQKPKKIVNAKKDVVNTKMFEELKSRLDTLAQEVALLKEQQALQTVCLKGTKVHMKCFLAFTQTKTFHEASEDCISRGGTLSTPQTGSENDALYEYLRQSVGNEAEIWLGLNRAWLRPRWVDMTGARIAYKNWETEITAQPDGGTLVSGENCAVLSGAANGKWFDKRCRDQLPYICQFGIV |  |  |  |  |  | Ka [1]: 6.43e+07 M⁻¹; Kd [1]: 15.6 nM; koff [1]: 0.000629 s⁻¹; kon [1]: 40500 M⁻¹ s⁻¹
8b6b (=A1H) DR 5 ATRIMER (designed binder, Homotrimer (ATRIMER) of this chain; one protomer is given., also called 029-15.A1H; not shown: C-terminal tag (His/Myc of pANA4, HA-StrepII of pANA10, or that of pANA19)) EPPTQKPKKIVNAKKDVVNTKMFEELKSRLDTLAQEVALLKEQQALQTVCLKGTKVHMKCFLAFTQTKTFHEASEDCISRGGTLSTPQTGSENDALYEYLRQSVGNEAEIWLGLNRAVLRPRWVDMTGARIAYKNWETEITAQPDGGWVLGGKNCAVLSGAANGKWFDKRCRDQLPYICQFGIV |  |  |  |  |  | Ka [1]: 2.56e+07 M⁻¹; Kd [1]: 39.1 nM; koff [1]: 0.000506 s⁻¹; kon [1]: 12900 M⁻¹ s⁻¹
101-51-1A5 ATRIMER (designed binder) EPPTQKPKKIVNAKKDVVNTKMFEELKSRLDTLAQEVALLKEQQALQTVCLKGTKVHMKCFLAFTQTKTFHEASEDCISRGGTLSTPQTGSENDALYEYLRQSVGNEAEIWLGLNGSALTNTWVDMTGARIAYKNWENGHEPQPRGGFGYFGENCAVLSGAANGKWFDKRCRDQLPYICQFGIV | 1 | 1.71e+09 | 0.584 | 0.000289 | 495000 | 
C3C ATRIMER (designed binder, Forms a homotrimer through the tetranectin coiled coil; one protomer is given., also called 001-89.C3C) EPPTQKPKKIVNAKKDVVNTKMFEELKSRLDTLAQEVALLKEQQALQTVCLKGTKVHMKCFLAFTQTKTFHEASEDCISRGGTLSTPQTGSENDALYEYLRQSVGNEAEIWLGLNANRRRTMWVDMTGARIAYKNWETEITAQPDGGMGVWGENCAVLSGAANGKWFDKRCRDQLPYICQFGIV |  | 1.2e+08 | 8.34 | 0.000483 | 57900 | 
A4A ATRIMER (designed binder, Forms a homotrimer through the tetranectin coiled coil; one protomer is given., also called 001-87.A4A) EPPTQKPKKIVNAKKDVVNTKMFEELKSRLDTLAQEVALLKEQQALQTVCLKGTKVHMKCFLAFTQTKTFHEASEDCISRGGTLSTPQTGSENDALYEYLRQSVGNEAEIWLGLNWTLAKNLWVDMTGARIAYKNWETEITAQPDGGLFGRGENCAVLSGAANGKWFDKRCRDQLPYICQFGIV |  | 1.24e+08 | 8.08 | 0.000409 | 50600 | 
B9B ATRIMER (designed binder, Forms a homotrimer through the tetranectin coiled coil; one protomer is given., also called 056-41.B9B) EPPTQKPKKIVNAKKDVVNTKMFEELKSRLDTLAQEVALLKEQQALQTVCLKGTKVHMKCFLAFTQTKTFHEASEDCISRGGTLSTPQTGSENDALYEYLRQSVGNEAEIWLGLNAPPDLGLWVDMTGARIAYKNWETEITAQPDGGWGVWGENCAVLSGAANGKWFDKRCRDQLPYICQFGIV |  | 1.94e+08 | 5.15 | 0.000478 | 92800 | 
101-51-1A9 ATRIMER (designed binder, ATRIMER is a homotrimer; one protomer is given., not shown: C-terminal purification tag: Myc/His6 (pANA4) or HA-StrepII (pANA10)) EPPTQKPKKIVNAKKDVVNTKMFEELKSRLDTLAQEVALLKEQQALQTVCLKGTKVHMKCFLAFTQTKTFHEASEDCISRGGTLSTPQTGSENDALYEYLRQSVGNEAEIWLGLNGSALTNTWVDMTGARIAYKNWEPARQPQPGGGFGYFGENCAVLSGAANGKWFDKRCRDQLPYICQFGIV | 2.2 | 1.05e+09 | 0.955 | 0.000329 | 345000 | 
014-42.3D11 ATRIMER (designed binder, Homotrimer (ATRIMER) of this chain; one protomer is given., not shown: C-terminal tag (His/Myc of pANA4, HA-StrepII of pANA10, or that of pANA19)) EPPTQKPKKIVNAKKDVVNTKMFEELKSRLDTLAQEVALLKEQQALQTVCLKGTKVHMKCFLAFTQTKTFHEASEDCISRGGTLSTPQTGSENDALYEYLRQSVGNEAEIWLGLNGWLEGAGWVDMTGARIAYKNWETEITAQPDGGWHWRWENCAVLSGAANGKWFDKRCRDQLPYICQFGIV |  |  |  |  |  | Ka [4]: 2.53e+07 M⁻¹; Kd [4]: 39.5 nM; koff [4]: 0.000526 s⁻¹; kon [4]: 13300 M⁻¹ s⁻¹
2a1a (=B9F) DR 5 ATRIMER (designed binder, Homotrimer (ATRIMER) of this chain; one protomer is given., also called 029-15.B9F; not shown: C-terminal tag (His/Myc of pANA4, HA-StrepII of pANA10, or that of pANA19)) EPPTQKPKKIVNAKKDVVNTKMFEELKSRLDTLAQEVALLKEQQALQTVCLKGTKVHMKCFLAFTQTKTFHEASEDCISRGGTLSTPQTGSENDALYEYLRQSVGNEAEIWLGLNKRVWYRGWVDMTGARIAYKNWETEITAQPDGGMRRRRENCAVLSGAANGKWFDKRCRDQLPYICQFGIV |  |  |  |  |  | Ka [1]: 2.38e+07 M⁻¹; Kd [1]: 42.8 nM; koff [1]: 0.00184 s⁻¹; kon [1]: 43800 M⁻¹ s⁻¹
9b3d (=B3D) DR 5 ATRIMER (designed binder, Homotrimer (ATRIMER) of this chain; one protomer is given., also called 029-15.B3D; not shown: C-terminal tag (His/Myc of pANA4, HA-StrepII of pANA10, or that of pANA19)) EPPTQKPKKIVNAKKDVVNTKMFEELKSRLDTLAQEVALLKEQQALQTVCLKGTKVHMKCFLAFTQTKTFHEASEDCISRGGTLSTPQTGSENDALYEYLRQSVGNEAEIWLGLNELRTDGLWVDMTGARIAYKNWETEITAQPDGGVMRRSENCAVLSGAANGKWFDKRCRDQLPYICQFGIV |  |  |  |  |  | Ka [1]: 1.11e+06 M⁻¹; Kd [1]: 899 nM; koff [1]: 0.000104 s⁻¹; kon [1]: 116 M⁻¹ s⁻¹
